Tests used:
BRD4 BD1 BD1 = BRD4 BD1 BD1 (Homo sapiens, UniProt O60885, ZZ1-SO2H)
[1] = target: biotinylated YPEL5–WDR26^ΔCTLH complex (AviTag on WDR26^ΔCTLH) (UniProt Q9H7D7 1-661; P62699 1-121, biotin on the C-terminal AviTag (BirA)); assay: BLI

B1: YPEL5 (protein)
chain: MGRIFLDHIGGTRLFSCANCDTILTNRSELISTRFTGATGRAFLFNKVVNLQYSEVQDRVMLTGRHMVRDVSCKNCNSKLGWIYEFATEDSQRYKEGRVILERALVRESEGFEEHVPSDNS
Question: With B1 as the binder, how does the Kd (BRD4 BD1 BD1) read?
Answer: ~12 nM

B2: BD1 domain of BRD3 (domain or fragment)
chain: not shown
Question: How did the Kd [1] turn out when B2 was run?
Answer: 23.2 nM

B3: BD1 domain of BRD2 (domain or fragment)
chain: not shown
Question: For B3, which Kd [1] is on record?
Answer: 16.4 nM
